The record followed here is the supplement of paper PMC12042874.

The data set is described as follows: amyloid nucleation score (Sup35N fusion, yeast selection) (log enrichment); library NNK1; higher = more nucleation; inactive = no reads after selection. An outline of the steps:
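In psi-negative yeast, Sup35N fusions carrying peptides of 20 random codons were induced with 100 μM copper sulfate for 24 hours. The cells then grew 7 days at 30°C on medium lacking adenine and uracil, and plasmid inserts from input and output were Illumina-sequenced, excluding sequences with under 100 input reads. Nucleation score is the DiMSum log enrichment of output over input reads, centred on the mode score of non-aggregating sequences.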

± gives the uncertainty stated by the source.

As to LVRLTCDMNNFKCQLMFQIF, the amyloid nucleation score stood at 1.17 ± 0.38.

The substance CTWWSMWNNNWDKFLTREQL yielded an amyloid nucleation score of 0.19 ± 1.1.

On to ISYRNLIRFCFSPYAKLWRF, for which the amyloid nucleation score was determined as 0.69 ± 0.52.

Substance LRLLFLNNSATCLVTHVGNQ had an amyloid nucleation score of 1.38 ± 0.74.

WVLWYSLLLTDGGDLIESTW displayed an amyloid nucleation score of -0.156 ± 0.23.

In turn, TSTSC gave an amyloid nucleation score of 0.223 ± 0.51.

FCWVGQNEWCRHLFELCLER yielded an amyloid nucleation score of 0.517 ± 0.63.

As to QIYKVDGYFQVGILLLSPVP, the amyloid nucleation score was -1.29 ± 0.95.

On to QRWLWKRNLDCQRDTSL, for which the amyloid nucleation score was 0.514 ± 0.75.

The substance LYEDLWFRVREL gave an amyloid nucleation score of 1.11 ± 0.63.

The substance DKEYWSVSSVRYTTENGWI showed an amyloid nucleation score of 1.07 ± 0.47.

For the substance VLKLLVVRFVPLPSSFYTCE, the amyloid nucleation score is 0.193 ± 0.92.

As for VWCRFERDTISKLCASWGRR, the amyloid nucleation score is -0.237 ± 1.9.

The substance RCLRTALCISMSGWCSYSNW returned an amyloid nucleation score of 1.27 ± 0.15.

As to LKFSVFVKASPCTIRRS, the amyloid nucleation score was -0.218 ± 0.5.

MMKSRLDPCDNDNFFGRVSH showed an amyloid nucleation score of -0.257 ± 0.85.

The substance SASYNFTSCFKFLRRKIVIK had an amyloid nucleation score of 0.196 ± 0.24.

As for RKDLEIWYRMRLGEMPLRWM, the amyloid nucleation score is -0.165 ± 0.33.

In the case of NCFRFCRQLLTAEDDVMCLP, the amyloid nucleation score turned out to be 0.117 ± 0.81.

SVFNGYQSLVICFLRVSACC had an amyloid nucleation score of 0.154 ± 1.

For RCGGSRDSACLANWIQFTMQ, the amyloid nucleation score stood at 4.67 ± 0.064.

Substance SETYTPDRYNVRT yielded an amyloid nucleation score of 0.536 ± 1.4.

With SLFPVTVRKDCCLT, the amyloid nucleation score was -0.434 ± 0.39.

Take PGGYM: the amyloid nucleation score is 0.597 ± 0.52.

For the substance SSIVKYSCLVVFFQRNHVIP, the amyloid nucleation score result is “inactive”.

In turn, MGLPVLVINNHTAKNGVTRA gave an amyloid nucleation score of 0.711 ± 0.73.

As to NIITIETGGRKVGTFMMYSI, the amyloid nucleation score entry is “inactive”.

The substance LQPLLISIKRRFLHYVSQNM displayed an amyloid nucleation score of -0.073 ± 0.66.

Substance GLNYLNFTREYYHLTWVVVP yielded an amyloid nucleation score of 4.47 ± 0.091.

NKLEYPHNNACATCC yielded an amyloid nucleation score of 1.09 ± 0.84.

WKASFIRFWFVAIMFMYNLC gave an amyloid nucleation score of -0.1 ± 0.42.

WIGGVKG registered an amyloid nucleation score of -0.427 ± 0.72.

Substance LAVKEL came in with an amyloid nucleation score of 0.678 ± 0.54.

The substance LRITYMSLVEYG came in with an amyloid nucleation score of 1.35 ± 0.69.

NFMEYYKIRVMCWANR registered an amyloid nucleation score of 0.616 ± 0.29.

ERVAQKILHLKSMPITARPV: the amyloid nucleation score was found to be 0.002 ± 1.1.

As for CKVSSSFS, the amyloid nucleation score was determined as 0.258 ± 0.34.

QYCAKSVSFRWCHLSRWLMP: the amyloid nucleation score was 0.401 ± 0.71.

Substance ATQSVFSKWVGGIRWWCVLL came in with an amyloid nucleation score of -0.65 ± 0.88.

As for LTNNVYSYVWILSSARISIV, the amyloid nucleation score was determined as 0.87 ± 0.22.

For NKAFGMIV, the amyloid nucleation score was -0.103 ± 0.79.

As to SFRKRQVVLVSANNDSVWKC, the amyloid nucleation score was -0.097 ± 0.57.

As for SNTKIED, the amyloid nucleation score amounted to 0.508 ± 0.59.

The substance LHSWSVAILIHYKMRD yielded an amyloid nucleation score of -0.084 ± 0.27.

KRVCLFLGSWNRHHLLGLFG had an amyloid nucleation score of 1.41 ± 0.84.

Take IGESVHKLSFWCDSGECF: the amyloid nucleation score came to 0.073 ± 0.31.

In the case of MAPRFIDVMQ, the amyloid nucleation score was -0.94 ± 0.97.

On to AHYPFI, for which the amyloid nucleation score is 0.065 ± 1.5.

As for FLGMAHLCHEEGVRKLGGES, the amyloid nucleation score stood at 0.679 ± 0.64.

LSGCEGVPLNLMYLDSKMSR yielded an amyloid nucleation score of -0.106 ± 0.74.

Consider RGHLLGFMRRLCFIGLR, for which the amyloid nucleation score is -0.372 ± 0.64.

On to GTTFIRLIYFVYMARTTTEF, for which the amyloid nucleation score is -1.35 ± 1.1.

Substance LKSWVLYYFM returned an amyloid nucleation score of 1.03 ± 0.35.

For the substance TLLWGTLSAGHS, the amyloid nucleation score result was “inactive”.

Take VPTMEMTVAYGSWTCSERCE: the amyloid nucleation score is -0.468 ± 0.44.

Substance NWSRPSSNLGGGPSSAVREG displayed an amyloid nucleation score of 0.764 ± 0.52.

Substance SASLS displayed an amyloid nucleation score of 0.396 ± 0.71.

In turn, IHEMTSWVTCRFCGVFKYIL registered an amyloid nucleation score of 2.03 ± 0.13.

KILCMSCFTNSYHARWTFIL: the amyloid nucleation score was 5.694 ± 0.051.

With LFTVKKVFQLLYL, the amyloid nucleation score came to 0.936 ± 0.7.

On to VGDYFFGDDSIGGSRMHVSY, for which the amyloid nucleation score amounted to 1.15 ± 0.65.

On to QTRRYTVNCLL, for which the amyloid nucleation score result was “inactive”.

In the case of FHLRSCIRFSYLMTDWQAFQ, the amyloid nucleation score came out at 0.69 ± 1.

In turn, RCGVRLF came in with an amyloid nucleation score of -1.31 ± 1.2.

On to PFLFVEIYDNGGSW, for which the amyloid nucleation score came to 1.36 ± 0.37.

The substance SNRNAGRKTMGHLWHQE yielded an amyloid nucleation score of 0.2 ± 0.42.

In turn, PARSWNLLLSSYYAVFGCFY had an amyloid nucleation score of -0.327 ± 0.74.

Take IFWGWSIQG: the amyloid nucleation score came to 1.17 ± 0.58.

PLRTLPEQRCW yielded an amyloid nucleation score of -0.006 ± 0.29.

WIVSFMAIRH gave an amyloid nucleation score of 1.51 ± 0.25.

As to YIIYGWVEIF, the amyloid nucleation score was -1.14 ± 2.1.

VYIVCYFLHTGSFGWTCCVE: the amyloid nucleation score entry was “inactive”.

In turn, ASDMSCMQSNSYFNLCTYTM registered an amyloid nucleation score of 5.28 ± 0.064.

In the case of VYSEVSFDF, the amyloid nucleation score entry was “inactive”.

In the case of HEYDLDKGTS, the amyloid nucleation score result was “inactive”.

In the case of NNANCMCSNTCHVFWANHAR, the amyloid nucleation score was 6.193 ± 0.061.

Substance FYWHHWTNLAIIVEYILGEW came in with an amyloid nucleation score of 0.571 ± 1.2.

In turn, CRPVGRRYKWFTFSGGLLLR showed an amyloid nucleation score of 1.14 ± 0.9.

VSFRTLYGRI: the amyloid nucleation score is -0.187 ± 0.27.

YGLATFMGKES returned an amyloid nucleation score of -0.104 ± 0.85.

WICMAP: the amyloid nucleation score turned out to be 3.42 ± 0.089.

ILERSHRVGYCAHLLCISVN yielded an amyloid nucleation score of 0.171 ± 0.63.

In turn, VFVSKNWGTCRHGRDSCC returned an amyloid nucleation score of 0.507 ± 0.26.

As to VLLIRYYFMKFDLSL, the amyloid nucleation score came out at 0.359 ± 0.47.

Substance SQIDYNDSCWNLGNP returned an amyloid nucleation score of 0.164 ± 0.39.

As to CKRRIQMKLLS, the amyloid nucleation score was -0.244 ± 0.37.

Regarding VCRKRCERQLKPL, the amyloid nucleation score was 0.241 ± 0.24.

Turning to DRIFDHGIHMFSIVGQDLFT, the amyloid nucleation score entry was “inactive”.

As to VGIPGGWIQNITFSSMKDFF, the amyloid nucleation score is 4.9 ± 0.065.

KLLSGGVNTWRPTGTSRLEI yielded an amyloid nucleation score of -0.053 ± 0.46.

In the case of KSKLMNKQFSRLTLVSTESR, the amyloid nucleation score was 3.86 ± 0.13.

For YLSLTTEVWSNGHVWCGIGR, the amyloid nucleation score was -0.043 ± 1.4.

Substance KSRSRLPCTRSHTIEFVRMR gave an amyloid nucleation score of 0.831 ± 0.56.

Consider GDLKSILVVLFSSLCVPTLR, for which the amyloid nucleation score was found to be 1.26 ± 0.21.

GLCFDARLLEL registered an amyloid nucleation score of -1.87 ± 2.7.

The substance TTSPGSNSRDPAGMMIT displayed an amyloid nucleation score of 0.38 ± 0.32.

In turn, LTRLSNCVLGGSC had an amyloid nucleation score of -0.512 ± 0.71.

Take LWLAVSSVNCHSRHLLVWVT: the amyloid nucleation score entry is “inactive”.

As to IACPYRHNGCNTRLRNINAV, the amyloid nucleation score was -0.316 ± 0.42.

For VSNRTVNDGYGSSGAALCLR, the amyloid nucleation score came to 0.099 ± 0.44.

DLNNGDAKSDRFYGSFLHSW registered an amyloid nucleation score of -0.612 ± 0.32.

For DVGLFMK, the amyloid nucleation score is -0.686 ± 0.53.

VCKWSVMNHFVVITYHYVMA had an amyloid nucleation score of 0.671 ± 0.3.

Take KSSWSSAS: the amyloid nucleation score is -0.076 ± 0.3.

In the case of NRMLSSKQAPSQNFQ, the amyloid nucleation score worked out at 0.814 ± 0.46.

Substance NLERKEVLSREGCICANFTR returned an amyloid nucleation score of -0.345 ± 0.45.

TFEALLTVDSYYSFSLVP registered an amyloid nucleation score of 1.21 ± 0.4.

In the case of FKYRVGDTSCMVCNVWYGGD, the amyloid nucleation score was determined as 7.552 ± 0.057.

Substance ARSVKAIIKAICRGV displayed an amyloid nucleation score of -0.055 ± 0.95.

In turn, FLLWKGTIDIMRWHVFASN displayed an amyloid nucleation score of -0.847 ± 0.79.

On to MVSLDWTSQLGR, for which the amyloid nucleation score worked out at 2.18 ± 0.54.

For VGRLGKFRGFSIGNYECSI, the amyloid nucleation score was found to be 0.726 ± 0.55.

Substance FFENWVYYHKCSHCYTAQYT yielded an amyloid nucleation score of -0.559 ± 0.35.

In the case of GGTGMVGRDANTSFIFWDIV, the amyloid nucleation score was -0.099 ± 0.36.

With NVKLFFNIFVGKSKIHTTPW, the amyloid nucleation score was 6.308 ± 0.058.

Substance CIFGHWAFFDCNCYILYVLY gave an amyloid nucleation score of 2.27 ± 0.23.

For the substance LFLNTNSRKYTKMDTILILS, the amyloid nucleation score is -0.359 ± 0.4.

Turning to GTYSKG, the amyloid nucleation score turned out to be 0.7 ± 0.97.

For CCLGRR, the amyloid nucleation score was -0.151 ± 0.52.

LGWNKSTAYELCFTPSSGGY: the amyloid nucleation score turned out to be 2.11 ± 0.15.

As to GFGGSGLTWGSRVCGV, the amyloid nucleation score was -1.5 ± 2.4.

Substance EINKLS gave an amyloid nucleation score of -1.27 ± 1.1.

DQNVAPYVSKHGVQTILKRD displayed an amyloid nucleation score of -1.51 ± 1.9.

Take GRCSKYCGFASATCMNGGVS: the amyloid nucleation score was determined as 0.032 ± 0.32.

FMDDSSLFPSI showed an amyloid nucleation score of 0.569 ± 0.58.

In the case of YRWSVCCLLVMFWLYDGALL, the amyloid nucleation score is -0.156 ± 0.8.

In turn, ILNYVRPCS showed an amyloid nucleation score of 0.416 ± 0.56.

For the substance VVRWSFDNAYSSSLDNLIVI, the amyloid nucleation score was -0.209 ± 0.34.

As for RWRFEVIKVTSFYMSFLKSA, the amyloid nucleation score came out at 0.234 ± 0.47.

As for ICVMS, the amyloid nucleation score result is “inactive”.

In the case of TTPFLHKENLNSIMK, the amyloid nucleation score came out at 0.396 ± 0.26.

In turn, KGHRCNIVTTNTAPRFPW showed an amyloid nucleation score of -0.482 ± 0.91.

As for SYSEYPHVEYLLLFSMTQWN, the amyloid nucleation score is 0.43 ± 0.34.

Consider VARSHYMCI, for which the amyloid nucleation score stood at 0.132 ± 0.38.

The substance LPNSMLSSGLGWSSINFF showed an amyloid nucleation score of 1.16 ± 0.7.

With VMPYYRRSQNHDSFNFGDVS, the amyloid nucleation score is 0.552 ± 0.52.

Turning to VVGRGKLQCVLFRHDTAYRV, the amyloid nucleation score was -0.058 ± 0.28.

Substance LDMECYYSIYRSESNVCMWI returned an amyloid nucleation score of 1.31 ± 0.93.

Take IRWTEL: the amyloid nucleation score was 0.512 ± 0.24.

On to SGKLCWLCVNCVILGSCKSL, for which the amyloid nucleation score was -0.442 ± 0.73.

In the case of SGTAKGVLAW, the amyloid nucleation score was 1.4 ± 0.63.
